According to patent publication US20180231548:

Assays:
[1] = molecular target: T1, Methyl Red (MR)-AAPV-NBD-UBI29-41
T1 chain: AAPVKTGRAKRRMQYNRR

B1: human neutrophil elastase (protein)
chain: IVGGRRARPHAWPFMVSLQLRGGHFCGATLIAPNFVMSAAHCVANVNVRAVRVVLGAHNLSRREPTRQVFAVQRIFENGYDPVNLLNDIVILQLNGSATINANVQVAQLPAQGRRLGNGVQCLAMGWGLLGRNRGIASVLQELNVTVVTSLCRRSNVCTLVRGRQAGVCFGDSGSPLVCNGLIHGIASFVRGGCASGLYPDAFAPVAQFVNWIDSIIQ
[1]
  bacterial labelling by NBD after cleavage of the probe; confocal images of a co-culture of bacteria and human neutrophils: These images confirm the ability of the probe to be cleaved by neutrophil derived HNE and to label bacteria
TAMRA-AAPV-NBD-PMX
  fluorescence of the cleaved TAMRA compound (spectrophotometer) and NBD labelling of bacteria after cleavage: the fluorescence of the cleaved TAMRA compound increases in an elastase dependent manner and are inhibited with an elastase inhibitor such as sivelestat
